Results on seven molecules are retold here after US20110009283A1.

For experiment [1], the target named is BK channel (species not stated). Put plainly: cell-based or functional assay.
Experiment [2] addresses T1, Kv1.3 K+ channel, wild-type, expressed in cells (species not stated) (Homo sapiens (Human)), P22001. Put plainly: cell-based or functional assay.
Experiment [3] has as its target Kv1.1 K+ channel (species not stated). The experiment is described as follows: cell-based or functional assay.
Experiment [4] deals with Kv1.2 K+ channel (species not stated). Put plainly: cell-based or functional assay.
For experiment [5], the target named is T2, Mus BK (big conductance calcium-activated K channel) (Mus), Q08460.
T2 sequence (Q08460 whole entry): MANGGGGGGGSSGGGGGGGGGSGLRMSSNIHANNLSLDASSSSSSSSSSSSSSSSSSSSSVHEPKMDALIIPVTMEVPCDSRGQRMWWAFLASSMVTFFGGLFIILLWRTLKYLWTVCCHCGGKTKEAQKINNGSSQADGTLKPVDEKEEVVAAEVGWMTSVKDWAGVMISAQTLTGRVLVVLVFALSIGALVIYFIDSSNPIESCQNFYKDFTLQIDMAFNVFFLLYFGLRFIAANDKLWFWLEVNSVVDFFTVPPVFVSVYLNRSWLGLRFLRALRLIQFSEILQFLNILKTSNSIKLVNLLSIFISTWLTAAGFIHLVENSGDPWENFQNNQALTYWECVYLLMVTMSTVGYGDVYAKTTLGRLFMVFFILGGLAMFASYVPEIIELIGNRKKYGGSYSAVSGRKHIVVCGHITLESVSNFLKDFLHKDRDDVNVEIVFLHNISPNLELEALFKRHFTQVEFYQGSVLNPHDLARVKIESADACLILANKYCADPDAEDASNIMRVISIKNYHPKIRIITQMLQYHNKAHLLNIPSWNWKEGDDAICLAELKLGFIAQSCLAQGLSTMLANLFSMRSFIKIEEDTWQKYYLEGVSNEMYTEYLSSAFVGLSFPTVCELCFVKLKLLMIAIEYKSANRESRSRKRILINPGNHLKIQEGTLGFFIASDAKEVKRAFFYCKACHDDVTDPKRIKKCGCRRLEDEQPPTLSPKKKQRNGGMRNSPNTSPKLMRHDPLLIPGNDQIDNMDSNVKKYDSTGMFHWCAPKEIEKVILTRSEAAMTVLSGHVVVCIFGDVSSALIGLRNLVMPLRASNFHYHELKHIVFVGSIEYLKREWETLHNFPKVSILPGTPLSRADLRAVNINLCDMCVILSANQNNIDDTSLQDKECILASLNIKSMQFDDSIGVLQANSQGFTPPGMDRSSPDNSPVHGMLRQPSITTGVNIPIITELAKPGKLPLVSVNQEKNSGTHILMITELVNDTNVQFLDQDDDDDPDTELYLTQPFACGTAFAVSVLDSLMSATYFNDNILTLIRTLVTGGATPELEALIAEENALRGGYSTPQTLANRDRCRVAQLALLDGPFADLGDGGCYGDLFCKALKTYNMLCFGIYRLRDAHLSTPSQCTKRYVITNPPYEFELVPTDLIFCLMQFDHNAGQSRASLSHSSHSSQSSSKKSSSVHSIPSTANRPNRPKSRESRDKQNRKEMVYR
Experiment [6] has as its target Homo Kv1.3 (Homo), P22001.
In experiment [7] the target is T3, Rattus Kv1.1 (Rattus), P10499.
T3 chain: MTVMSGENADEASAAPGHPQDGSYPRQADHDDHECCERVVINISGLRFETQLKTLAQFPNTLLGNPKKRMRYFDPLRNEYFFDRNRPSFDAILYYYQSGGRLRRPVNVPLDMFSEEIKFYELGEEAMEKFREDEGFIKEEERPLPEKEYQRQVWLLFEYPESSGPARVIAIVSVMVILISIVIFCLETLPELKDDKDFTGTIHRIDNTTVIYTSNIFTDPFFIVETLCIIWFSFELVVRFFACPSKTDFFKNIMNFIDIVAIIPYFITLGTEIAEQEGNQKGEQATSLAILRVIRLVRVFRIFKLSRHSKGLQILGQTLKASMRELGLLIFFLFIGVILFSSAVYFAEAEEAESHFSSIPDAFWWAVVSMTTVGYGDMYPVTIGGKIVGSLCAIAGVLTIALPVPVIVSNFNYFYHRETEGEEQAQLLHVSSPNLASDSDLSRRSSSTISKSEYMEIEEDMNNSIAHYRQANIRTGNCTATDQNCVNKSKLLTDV

Experiment [8] concerns the target T4, Rattus Kv1.2 (Rattus), P63142.
T4 chain: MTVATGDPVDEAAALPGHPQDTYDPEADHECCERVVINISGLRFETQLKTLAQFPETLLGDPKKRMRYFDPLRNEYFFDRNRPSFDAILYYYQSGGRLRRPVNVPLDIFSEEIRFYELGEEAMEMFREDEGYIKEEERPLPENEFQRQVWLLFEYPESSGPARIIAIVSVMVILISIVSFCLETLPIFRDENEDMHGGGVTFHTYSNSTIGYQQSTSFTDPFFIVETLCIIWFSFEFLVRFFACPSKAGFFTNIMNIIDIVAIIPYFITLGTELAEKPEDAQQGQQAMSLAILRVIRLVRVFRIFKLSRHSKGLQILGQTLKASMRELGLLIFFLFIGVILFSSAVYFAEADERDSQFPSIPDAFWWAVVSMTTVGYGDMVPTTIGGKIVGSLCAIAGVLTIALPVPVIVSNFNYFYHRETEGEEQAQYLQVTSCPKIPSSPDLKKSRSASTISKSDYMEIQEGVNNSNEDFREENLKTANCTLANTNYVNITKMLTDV

The target in experiment [9] is antiserum to sarafotoxin S6b.
Experiment [10] concerns the target KcsA-Kv1.3 (KcsA carrying a segment of the Kv1.3 pore loop).
The target of experiment [11] is T1, Kv1.3 K+ channel, wild-type, expressed …. Put plainly: panning of a 2:2:96 phage mixture on HEK cells expressing Kv1.3.
The target is the same in experiment [12].
Experiment [13] deals with antiserum to sarafotoxin S6b. This is another data set of the same source.
In experiment [14] the target is T1, Kv1.3 K+ channel, wild-type, expressed …. Put plainly: phage panning on COS cells transfected with Kv1.3 vs vector; 5x10^11 phagemids.
For experiment [15] the target is unchanged. The experiment is described as follows: one round of phage panning on mammalian cells expressing Kv1.3.
The target is the same in experiment [16]. The experiment is described as follows: phage panning on HEK cells transfected with Kv1.3 vs vector; 5x10^11 phagemids.
For experiment [17] the target is unchanged. The source holds these as a separate data set.
Experiment [18] has as its target T2, Mus BK (big conductance …). The experiment is described as follows: two-electrode voltage clamp, kinetics of block in Xenopus oocytes. In general terms: In two-electrode clamp one electrode senses voltage and the other passes current.
Experiment [19] has as its target Homo Kv1.3 (Homo), P22001. Described as above.
The target in experiment [20] is T3, Rattus Kv1.1 (Rattus), P10499. The experiment is described as above.
Experiment [21] has as its target T4, Rattus Kv1.2 (Rattus), P63142. The experiment is described as above.
The target of experiment [22] is T1, Kv1.3 K+ channel, wild-type, expressed …. This is another data set of the same source.
The target of experiment [23] is T5, KcsA, wild-type, P0A334.
T5 chain: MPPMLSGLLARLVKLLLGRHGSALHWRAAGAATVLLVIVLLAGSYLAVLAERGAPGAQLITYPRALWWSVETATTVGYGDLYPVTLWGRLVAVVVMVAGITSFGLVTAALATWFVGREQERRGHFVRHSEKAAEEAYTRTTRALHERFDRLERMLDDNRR
The experiment is described as follows: phage panning of Shk / Camel VHH mixture on KcsA (n = 17-20).

Where “and” joins values, the source holds several entries; their conditions need not be identical. Equal entries are not always repeated. Where two headings read alike, the source gives them in different places. Where no end group is shown, it is not given here. Bounds are passed on as bounds.

T1 sequence (P22001 whole entry): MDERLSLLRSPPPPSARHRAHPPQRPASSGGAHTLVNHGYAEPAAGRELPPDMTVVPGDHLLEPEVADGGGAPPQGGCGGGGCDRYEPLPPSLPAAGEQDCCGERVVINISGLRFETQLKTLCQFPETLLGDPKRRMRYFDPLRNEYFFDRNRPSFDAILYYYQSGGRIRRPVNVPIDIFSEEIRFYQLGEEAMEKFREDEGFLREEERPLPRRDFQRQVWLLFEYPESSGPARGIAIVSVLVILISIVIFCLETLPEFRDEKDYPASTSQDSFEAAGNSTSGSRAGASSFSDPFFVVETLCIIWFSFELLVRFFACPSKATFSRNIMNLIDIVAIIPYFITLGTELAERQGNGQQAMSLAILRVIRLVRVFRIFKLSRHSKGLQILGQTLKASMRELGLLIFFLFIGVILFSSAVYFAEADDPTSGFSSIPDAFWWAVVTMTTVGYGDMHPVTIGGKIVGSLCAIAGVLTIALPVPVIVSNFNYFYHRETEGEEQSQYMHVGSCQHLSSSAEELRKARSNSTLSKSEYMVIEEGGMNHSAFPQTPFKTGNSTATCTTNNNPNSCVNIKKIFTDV
Homo Kv1.3 (Homo), P22001, sequence (P22001 whole entry): as above

Regarding ZFTNVSCTTSKECWSVCQRLHNTSRGKCMNKKCRCYS (modifications not checked) [Charybdotoxin (CTX)], the approximate IC50 (nM) of channel block in experiment [1] amounted to 3 nM; in experiment [2] it was 2.5 nM; in [3], 1500 nM; in experiment [4], 5.6 nM. Moreover, the Ki in [5] is 5 nM; in experiment [6], 0.9 nM; in experiment [7] it was more than 1000 nM; in experiment [8], 9 nM.

B1: sarafotoxin S6b phage (peptide)
chain: CSCKDMTDKECLYFCHQDVIW
modifications: cysteine pairing not given here; also: displayed on phage via linker and coat protein
For the molecule B1, the Output (% Ligands) in experiment [9] is 100%; in [10] it was 0%.
Consider GVEINVKCSGSPQCLKPCKDAGMRFGKCMNRKCHCTPK (modifications not checked) [Kaliotoxin-1 phage (KTX-phage)], for which, in experiment [11], the % of phages after the 2nd panning was found to be 40%. Further, in [2], the block of Kv1.3 currents, whole-cell patch-clamp in HEK293 cells, 1 nM KTX-phage was determined as 35% and the time to half reversal of inhibition on washing came to 20 min. In [12], this molecule came in with a % of recovered phage, 2nd round of 0% and a % of recovered phage, 3rd round of 58%. For the same molecule, the Output (% Ligands) in [13] came out at 0%. For the same molecule, the fold enrichment (Kv1.3-transfected vs vector cells) in experiment [14] was 10 fold. The Fold Enrichment in experiment [15] was 4.3 fold and 5.2 fold. In experiment [16], this molecule registered a fold enrichment (Kv1.3-transfected vs vector cells) of 20 fold. For the same molecule, in experiment [17], the output KTX (%) is 22% and 30% and 26%.
Consider GVPINVSCTGSPQCIKPCKDAGMRFGKCMNRKCHCTPK (modifications not checked) [Agitoxin-2 (AgTx2)], for which the approximate IC50 (nM) of channel block in experiment [1] turned out to be 1150 nM; in [2], 0.004 nM; in [3] it was 0.04 nM; in experiment [4] it was 26.8 nM. Further, the inhibition constant (Ki) in experiment [6] amounted to 0.041 nM; in experiment [7], 0.17 nM; in [8], 3.4 nM.
On to GVEINVKCSGSPQCLKPCKDAGMRFGKCMNRKCHCTPK (modifications not checked) [Kaliotoxin-1 (KTX)], for which the approximate IC50 (nM) of channel block stood at 5 nM in experiment [1], 0.5 nM in experiment [2], 0.1 nM in [3] and 1.4 nM in experiment [4]. In addition, the koff in experiment [18] stood at 0.0211 s⁻¹; in experiment [19], 0.007 s⁻¹; in experiment [20], 0.009 s⁻¹; in experiment [21] it was 0.21 s⁻¹. The kon in experiment [18] amounted to 21000 M⁻¹ s⁻¹; in [19] it was 8e+08 M⁻¹ s⁻¹; in experiment [20] it was 3e+07 M⁻¹ s⁻¹; in [21], 1.3e+07 M⁻¹ s⁻¹. For the same molecule, the Ki turned out to be 1.6 nM in [5], 0.008 nM in [6], 1.1 nM in experiment [7] and 20 nM in experiment [8].
Turning to GVEINVKCSGSPQCLKPCKDAGMDFGDCMNDKCHCTPK (modifications not checked) [DDD-KTX-phage (inactive kaliotoxin-1, R24D, K27D, R31D, on phage)], in experiment [22], the # of genotype, Test was 2 colonies and the % of genotype, Test was 10%. In [12], the % of recovered phage, 2nd round came to 100% and the % of recovered phage, 3rd round worked out at 42%.
As to RSCIDTIPKSRCTAFQCKHSMKYRLSFCRKTCGTC (modifications not checked) [Shk phage (sea anemone K+ channel toxin ShK on phage)], in experiment [23], the % phages, OUTPUT is 0%.

For orientation: Ki means the dissociation constant of the complex between target and ligand, obtained from inhibition or displacement. In general, koff refers to a measure of how fast the partners let go of each other. One may read the kon as the second-order rate constant of association.
